Among the data in publication PMC4353338, “Molecular annotation of ketol-acid reductoisomerases from Streptomyces reveals a novel amino acid biosynthesis interlock mediated by enzyme promiscuity” (Microbial Biotechnology, 2014) are Km and kcat values, retold here.

Common to all, as to assay: purified protein
Conditions in all cases: 0.1 M Tris-HCl pH 8, 10 mM MgCl2, 0.22 mM NADP(H), 25 C

Substrate in data set [1]: CC(=O)[C@](C)(O)C(=O)O
It is filed as biochemical, Streptomyces griseus.

Substrate in data set [2]: CC[C@](O)(C(C)=O)C(=O)O
It is filed as biochemical, Streptomyces griseus.

Substrate in data set [3]: CC(C)(O)C(=O)C(=O)O
It is filed as biochemical, Corynebacterium glutamicum.

Substrate in data set [4]: CC(=O)[C@](C)(O)C(=O)O
The class given is biochemical, Streptomyces coelicolor.

Substrate in data set [5]: CC(C)(O)C(=O)C(=O)O
The class given is biochemical, Streptomyces coelicolor.

Substrate in data set [6]: CC(=O)[C@](C)(O)C(=O)O
It is filed as biochemical, Streptomyces ambofaciens.

Substrate in data set [7]: CC(C)(O)C(=O)C(=O)O
The class given is biochemical, Streptomyces ambofaciens.

Substrate in data set [8]: CC(=O)[C@](C)(O)C(=O)O
It is filed as biochemical, Streptomyces lividans.

Substrate in data set [9]: CC(C)(O)C(=O)C(=O)O
The class given is biochemical, Streptomyces lividans.

Substrate in data set [10]: CC(=O)[C@](C)(O)C(=O)O
The class given is biochemical, Streptomyces avermitilis.

Substrate in data set [11]: CC[C@](O)(C(C)=O)C(=O)O
The class given is biochemical, Streptomyces avermitilis.

Substrate in data set [12]: CC(C)(O)C(=O)C(=O)O
The class given is biochemical, Escherichia coli.

Substrate in data set [13]: CC(=O)[C@](C)(O)C(=O)O
It is filed as biochemical, Streptomyces pristinaespiralis.

Substrate in data set [14]: CC(C)(O)C(=O)C(=O)O
It is filed as biochemical, Streptomyces pristinaespiralis.

Substrate in data set [15]: CC(=O)[C@](C)(O)C(=O)O
It is filed as biochemical, Streptomyces viridifaciens.

Substrate in data set [16]: CC(C)(O)C(=O)C(=O)O
It is filed as biochemical, Streptomyces viridifaciens.

The Km is the concentration of substrate that gives half-maximal velocity. As usually defined, the kcat is the number of substrate molecules converted per active site and unit of time at saturation.

Substitutions are numbered along the chain they refer to.

B1: Sgr (Streptomyces griseus subsp. griseus NBRC 13350) (protein)
chain: MAELFYDDDADLSIIQGRKVAVLGYGSQGHAHALSLRDSGVDVRVGLHEGSKSKAKAEEQGLRVVTPSEAAAEADVIMILVPDPIQAQVYEESVKDNLKDGDALFFGHGLNIRFGFIKPPAGVDVCMVAPKGPGHLVRRQYEEGRGVPCIVAVEQDASGKGLELALSYAKGIGGTRAGVIKTTFTEETETDLFGEQAVLCGGTAALVKAGFETLTEAGYQPEIAYFECLHELKLIVDLMYEGGLEKMRWSISETAEWGDYVTGPRIITDATKAEMKKVLAEIQDGTFAKNWMAEYHNGLPKYNEYKKADSDHLLETTGRELRKLMSWVNDEEA
notes: pET28a, expressed in E. coli BL21 Star (DE3), Ni-NTA purified (His-tagged)
As to B1, in “purified protein [1]”, the Km stood at 1200 ± 700 µM and the kcat is 0.42 ± 0.04 s⁻¹. Further, in the data set “purified protein [2]”, the Michaelis-Menten constant (Km) is 2500 ± 300 µM and the kcat worked out at 0.44 ± 0.03 s⁻¹.

B2: Cgl (Corynebacterium glutamicum ATCC 13032) (protein)
chain: MAIELLYDADADLSLIQGRKVAIVGYGSQGHAHSQNLRDSGVEVVIGLREGSKSAEKAKEAGFEVKTTAEAAAWADVIMLLAPDTSQAEIFTNDIEPNLNAGDALLFGHGLNIHFDLIKPADDIIVGMVAPKGPGHLVRRQFVDGKGVPCLIAVDQDPTGTAQALTLSYAAAIGGARAGVIPTTFEAETVTDLFGEQAVLCGGTEELVKVGFEVLTEAGYEPEMAYFEVLHELKLIVDLMFEGGISNMNYSVSDTAEFGGYLSGPRVIDADTKSRMKDILTDIQDGTFTKRLIANVENGNTELEGLRASYNNHPIEETGAKLRDLMSWVKVDARAETA
notes: as for B1
In the case of B2, in the data set “purified protein [3]”, the Km is 2300 ± 250 µM and the kcat was determined as 0.9 ± 0.08 s⁻¹.

B3: Sco1 (Streptomyces coelicolor A3(2)) (protein)
chain: MAELFYDADADLSIIQGRKVAVIGYGSQGHAHALSLRDSGVDVRVGLHEGSKSKAKAEEQGLRVVPVAEAAAEADVIMILVPDPIQAEVYEKDIKDNLKDGDALFFGHGLNIRYGFIKPPAGVDVCMVAPKGPGHLVRRQYEEGRGVPCIAAVEQDATGNAFALALSYAKGIGGTRAGVIKTTFTEETETDLFGEQAVLCGGTAALVKAGFETLTEAGYQPEIAYFECLHELKLIVDLMYEGGLEKMRWSISETAEWGDYVTGPRIITDATKAEMKKVLAEIQDGTFAKNWMDEYHGGLKKYNEYKKQDSEHLLETTGKELRKLMSWVDEEA
notes: as for B1
As to B3, in the data set “purified protein [4]”, the Km was found to be 1600 ± 200 µM and the kcat is 1.1 ± 0.2 s⁻¹. In the data set “purified protein [5]”, the Km was determined as 3000 ± 200 µM and the kcat was 2.2 ± 0.15 s⁻¹.

B4: Sam (Streptomyces ambofaciens) (protein)
chain: B3 chain with P66S, V67P, A68S, E88Q, K92E, D93H, Y114F, T158S, K307Q, E320Q
notes: as for B1
As to B4, in the data set “purified protein [6]”, the Km was found to be 2000 ± 150 µM and the kcat came out at 0.63 ± 0.5 s⁻¹. Moreover, in “purified protein [7]”, the Km is 4000 ± 300 µM and the kcat amounted to 0.8 ± 0.1 s⁻¹.

B5: Sli1 (Streptomyces lividans TK24) (protein)
chain: B3 chain
notes: as for B1
Turning to B5, in the data set “purified protein [8]”, the Km was found to be 1200 ± 70 µM and the kcat came out at 0.7 ± 0.59 s⁻¹. Besides, in “purified protein [9]”, the Km is 4000 ± 500 µM and the kcat turned out to be 2.8 ± 0.3 s⁻¹.

B6: Sco2 (Streptomyces coelicolor A3(2)) (protein)
chain: B3 chain with I117V, I150L, A151V, K181R, C200A, T203V, A204T, A270V, K276R
notes: as for B1
For B6, in the data set “purified protein [4]”, the Km amounted to 12000 ± 800 µM and the kcat is 0.24 ± 0.01 s⁻¹. Further, in the data set “purified protein [5]”, the Km was found to be 10000 ± 110 µM and the kcat was 0.3 ± 0.04 s⁻¹.

B7: Sav (Streptomyces avermitilis MA-4680 = NBRC 14893) (protein)
chain: MAELFYDADADLSIIQGRKVAVIGYGSQGHAHALSLRDSGVDVRVGLHEGSKSKAKAEEQGLRVVTPSEAAAEADVIMILVPDPIQAQVYEESIKDNLKDGDALFFGHGLNIRFGFIKPPAGVDVCMVAPKGPGHLVRRQYEEGRGVPCIAAVEQDATGNGFALALSYAKGIGGTRAGVIKTTFTEETETDLFGEQAVLCGGTAALVKAGFETLTEAGYQPEIAYFECLHELKLIVDLMYEGGLEKMRWSISETAEWGDYVTGPRIITDATKAEMKKVLAEIQDGTFAQAWMDEYHGGLKKYNEYKTQDENHLLETTGKELRKLMSWVNDEEA
notes: as for B1
For the protein B7, the values for the Michaelis-Menten constant (Km) in the data set “purified protein [10]” and in the data set “purified protein [11]” were 800 ± 90 µM and 2600 ± 300 µM, respectively. Moreover, the kcat in the data set “purified protein [10]” is 0.24 ± 0.2 s⁻¹; in “purified protein [11]”, 0.4 ± 0.04 s⁻¹.

B8: Eco (Escherichia coli K-12) (protein)
chain: ANYFNTLNLRQQLAQLGKCRFMGRDEFADGASYLQGKKVVIVGCGAQGLNQGLNMRDSGLDISYALRKEAIAEKRASWRKATENGFKVGTYEELIPQADLVINLTPDKQHSDVVRTVQPLMKDGAALGYSHGFNIVEVGEQIRKDITVVMVAPKCPGTEVREEYKRGFGVPTLIAVHPENDPKGEGMAIAKAWAAATGGHRAGVLESSFVAEVKSDLMGEQTILCGMLQAGSLLCFDKLVEEGTDPAYAEKLIQFGWETITEALKQGGITLMMDRLSNPAKLRAYALSEQLKEIMAPLFQKHMDDIISGEFSSGMMADWANDDKKLLTWREETGKTAFETAPQYEGKIGEQEYFDKGVLMIAMVKAGVELAFETMVDSGIIEESAYYESLHELPLIANTIARKRLYEMNVVISDTAEYGNYLFSYACVPLLKPFMAELQPGDLGKAIPEGAVDNGQLRDVNEAIRSHAIEQVGKKLRGYMTDMKRIAVAG
notes: as for B1
In the case of B8, in “purified protein [12]”, the Km was found to be 260 ± 30 µM and the turnover number (kcat) stood at 3.1 ± 0.25 s⁻¹.

B9: Spr (Streptomyces pristinaespiralis ATCC 25486) (protein)
chain: MAELFYDDDADLSIIQNRKVAVIGYGSQGHAHALSLRDSGVDVRVGLHEGSKSKAKAEEQGLRVVTPAEAAAEADVIMILIPDPIQAQVYEESVKGNLKDGDALFFAHGFNVRFGFIKAPAGVDVALVAPKGPGHLVRRQYEEGRGVPAIAAVEQDATGNAFALALSYAKAIGGTRAGVIKTTFTEETETDLFGEQAVLCGGASALVKAGFETLTEAGYQPEIAYFECLHELKLIVDLMYEGGLEKMRWSVSETAEWGDYITGPRIITDQTKAEMKKVLAEIQDGTFAKNWMDEYHGGLKKYDEYKTQDSEHLLETTGKELRKLMSWVDNDEA
notes: as for B1
On to B9, for which, in the data set “purified protein [13]”, the Michaelis-Menten constant (Km) is 9000 ± 700 µM and the kcat amounted to 3.6 ± 0.3 s⁻¹. Also, in “purified protein [14]”, the Km amounted to 8600 ± 900 µM and the kcat is 5.2 ± 0.6 s⁻¹.

B10: Svi2 (Streptomyces viridifaciens) (protein)
chain: MAELFYDADADLSIIQGRKVAVIGYGSQGHAHALSLRDSGVDVRVGLHEGSKSKAKAEEQGLRVVTPAEAAAEADVIMILVPDPIQAQVYEESVKDNLKDGDALFFGHGFNIRFGFIKPPAGVDVCMVAPKGPGHLVRRQYEEGRGVPCIAAVEQDASGNAFALALSYAKGIGGTRAGVIKTTFTEETETDLFGEQAVLCGGTSALVKAGFETLVEAGYQPEIAYFECLHELKLIVDLMYEGGLEKMRWSVSETAEWGDYVTGPRIITDATKAEMKKVLAEIQDGTFAKNWMDEYHGGLKKYDDYKEQDSEHLLETTGKQLRKLMSWVNEETM
notes: commercially synthesized gene; pET28a, expressed in E. coli BL21 Star (DE3), Ni-NTA purified (His-tagged)
Regarding B10, in the data set “purified protein [15]”, the Km was determined as 1800 ± 900 µM and the kcat was found to be 2 ± 0.07 s⁻¹. Further, in the data set “purified protein [16]”, the Michaelis-Menten constant (Km) is 5000 ± 4800 µM and the kcat amounted to 2.5 ± 0.3 s⁻¹.
